Earlier results as cited in patent US20230332104A1, “ZBTB32 INHIBITORS AND USES THEREOF” (NOVARTIS AG, priority 2020, published 2023).

Tested on: rodent and cynomolgus monkey TGF-β

B1: XOMA 089: fully human monoclonal antibody that specifically binds and neutralizes TGF-beta 1 and 2 ligands (antibody, V domains shown)
VH: QVQLVQSGAEVKKPGSSVKVSCKASGGTFSSYAISWVRQAPGQGLEWMGGIIPIFGTANYAQKFQGRVTITADESTSTAYMELSSLRSEDTAVYYCARGLWEVRALPSVYWGQGTLVTVSS
VL: SYELTQPPSVSVAPGQTARITCGANDIGSKSVHWYQQKAGQAPVLVVSEDIIRPSGIPERISGSNSGNTATLTISRVEAGDEADYYCQVWDRDSDQYVFGTGTKVTVLG
- cross-reactivity with rodent and cynomolgus monkey TGF-β: cross-reacts
